Source: patent US20210388087A1 (Chugai, published 2021)

B1: H183/L072 VH Q50F (antibody, name in Kabat numbering, V domains shown)
VH: QVQLVESGGGLVQPGRSLRLSCAASGFTFSNAWMHWVRQAPGKGLEWVAFIKDKGNAYAAYYAPSVKGRFTISRDDSKNSIYLQMNSLKTEDTAVYYCHYVHYASASTVLPAFGVDAWGQGTTVTVSS
VL: DIVMTQSPLSLPVTPGEPASISCQASQELVHMNRNTYLHWYQQKPGQAPRLLIYKVSNRFPGVPDRFSGSGSGTDFTLKISRVEAEDVGVYYCAQGTSVPFTFGQGTKLEIK
B2: H183/L072 VH S30M (antibody, name in Kabat numbering, V domains shown)
VH: QVQLVESGGGLVQPGRSLRLSCAASGFTFMNAWMHWVRQAPGKGLEWVAQIKDKGNAYAAYYAPSVKGRFTISRDDSKNSIYLQMNSLKTEDTAVYYCHYVHYASASTVLPAFGVDAWGQGTTVTVSS
VL: DIVMTQSPLSLPVTPGEPASISCQASQELVHMNRNTYLHWYQQKPGQAPRLLIYKVSNRFPGVPDRFSGSGSGTDFTLKISRVEAEDVGVYYCAQGTSVPFTFGQGTKLEIK
B3: H183/L072 VH S30I (antibody, name in Kabat numbering, V domains shown)
VH: QVQLVESGGGLVQPGRSLRLSCAASGFTFINAWMHWVRQAPGKGLEWVAQIKDKGNAYAAYYAPSVKGRFTISRDDSKNSIYLQMNSLKTEDTAVYYCHYVHYASASTVLPAFGVDAWGQGTTVTVSS
VL: DIVMTQSPLSLPVTPGEPASISCQASQELVHMNRNTYLHWYQQKPGQAPRLLIYKVSNRFPGVPDRFSGSGSGTDFTLKISRVEAEDVGVYYCAQGTSVPFTFGQGTKLEIK
B4: H183/L072 VH Q50W (antibody, name in Kabat numbering, V domains shown)
VH: QVQLVESGGGLVQPGRSLRLSCAASGFTFSNAWMHWVRQAPGKGLEWVAWIKDKGNAYAAYYAPSVKGRFTISRDDSKNSIYLQMNSLKTEDTAVYYCHYVHYASASTVLPAFGVDAWGQGTTVTVSS
VL: DIVMTQSPLSLPVTPGEPASISCQASQELVHMNRNTYLHWYQQKPGQAPRLLIYKVSNRFPGVPDRFSGSGSGTDFTLKISRVEAEDVGVYYCAQGTSVPFTFGQGTKLEIK
B5: H183/L072 VH S30G (antibody, name in Kabat numbering, V domains shown)
VH: QVQLVESGGGLVQPGRSLRLSCAASGFTFGNAWMHWVRQAPGKGLEWVAQIKDKGNAYAAYYAPSVKGRFTISRDDSKNSIYLQMNSLKTEDTAVYYCHYVHYASASTVLPAFGVDAWGQGTTVTVSS
VL: DIVMTQSPLSLPVTPGEPASISCQASQELVHMNRNTYLHWYQQKPGQAPRLLIYKVSNRFPGVPDRFSGSGSGTDFTLKISRVEAEDVGVYYCAQGTSVPFTFGQGTKLEIK
B6: H183/L072 VH Q50L (antibody, name in Kabat numbering, V domains shown)
VH: QVQLVESGGGLVQPGRSLRLSCAASGFTFSNAWMHWVRQAPGKGLEWVALIKDKGNAYAAYYAPSVKGRFTISRDDSKNSIYLQMNSLKTEDTAVYYCHYVHYASASTVLPAFGVDAWGQGTTVTVSS
VL: DIVMTQSPLSLPVTPGEPASISCQASQELVHMNRNTYLHWYQQKPGQAPRLLIYKVSNRFPGVPDRFSGSGSGTDFTLKISRVEAEDVGVYYCAQGTSVPFTFGQGTKLEIK
B7: H183/L072 VH S30A (antibody, name in Kabat numbering, V domains shown)
VH: QVQLVESGGGLVQPGRSLRLSCAASGFTFANAWMHWVRQAPGKGLEWVAQIKDKGNAYAAYYAPSVKGRFTISRDDSKNSIYLQMNSLKTEDTAVYYCHYVHYASASTVLPAFGVDAWGQGTTVTVSS
VL: DIVMTQSPLSLPVTPGEPASISCQASQELVHMNRNTYLHWYQQKPGQAPRLLIYKVSNRFPGVPDRFSGSGSGTDFTLKISRVEAEDVGVYYCAQGTSVPFTFGQGTKLEIK
B8: H183/L072 VH Q50K (antibody, name in Kabat numbering, V domains shown)
VH: QVQLVESGGGLVQPGRSLRLSCAASGFTFSNAWMHWVRQAPGKGLEWVAKIKDKGNAYAAYYAPSVKGRFTISRDDSKNSIYLQMNSLKTEDTAVYYCHYVHYASASTVLPAFGVDAWGQGTTVTVSS
VL: DIVMTQSPLSLPVTPGEPASISCQASQELVHMNRNTYLHWYQQKPGQAPRLLIYKVSNRFPGVPDRFSGSGSGTDFTLKISRVEAEDVGVYYCAQGTSVPFTFGQGTKLEIK
B9: H183/L072 VH S30K (antibody, name in Kabat numbering, V domains shown)
VH: QVQLVESGGGLVQPGRSLRLSCAASGFTFKNAWMHWVRQAPGKGLEWVAQIKDKGNAYAAYYAPSVKGRFTISRDDSKNSIYLQMNSLKTEDTAVYYCHYVHYASASTVLPAFGVDAWGQGTTVTVSS
VL: DIVMTQSPLSLPVTPGEPASISCQASQELVHMNRNTYLHWYQQKPGQAPRLLIYKVSNRFPGVPDRFSGSGSGTDFTLKISRVEAEDVGVYYCAQGTSVPFTFGQGTKLEIK
B10: H183/L072 VH Q50N (antibody, name in Kabat numbering, V domains shown)
VH: QVQLVESGGGLVQPGRSLRLSCAASGFTFSNAWMHWVRQAPGKGLEWVANIKDKGNAYAAYYAPSVKGRFTISRDDSKNSIYLQMNSLKTEDTAVYYCHYVHYASASTVLPAFGVDAWGQGTTVTVSS
VL: DIVMTQSPLSLPVTPGEPASISCQASQELVHMNRNTYLHWYQQKPGQAPRLLIYKVSNRFPGVPDRFSGSGSGTDFTLKISRVEAEDVGVYYCAQGTSVPFTFGQGTKLEIK
B11: H183/L072 VH S30D (antibody, name in Kabat numbering, V domains shown)
VH: QVQLVESGGGLVQPGRSLRLSCAASGFTFDNAWMHWVRQAPGKGLEWVAQIKDKGNAYAAYYAPSVKGRFTISRDDSKNSIYLQMNSLKTEDTAVYYCHYVHYASASTVLPAFGVDAWGQGTTVTVSS
VL: DIVMTQSPLSLPVTPGEPASISCQASQELVHMNRNTYLHWYQQKPGQAPRLLIYKVSNRFPGVPDRFSGSGSGTDFTLKISRVEAEDVGVYYCAQGTSVPFTFGQGTKLEIK
B12: H183/L072 VH Q50S (antibody, name in Kabat numbering, V domains shown)
VH: QVQLVESGGGLVQPGRSLRLSCAASGFTFSNAWMHWVRQAPGKGLEWVASIKDKGNAYAAYYAPSVKGRFTISRDDSKNSIYLQMNSLKTEDTAVYYCHYVHYASASTVLPAFGVDAWGQGTTVTVSS
VL: DIVMTQSPLSLPVTPGEPASISCQASQELVHMNRNTYLHWYQQKPGQAPRLLIYKVSNRFPGVPDRFSGSGSGTDFTLKISRVEAEDVGVYYCAQGTSVPFTFGQGTKLEIK
B13: H183/L072 VH Q50Y (antibody, name in Kabat numbering, V domains shown)
VH: QVQLVESGGGLVQPGRSLRLSCAASGFTFSNAWMHWVRQAPGKGLEWVAYIKDKGNAYAAYYAPSVKGRFTISRDDSKNSIYLQMNSLKTEDTAVYYCHYVHYASASTVLPAFGVDAWGQGTTVTVSS
VL: DIVMTQSPLSLPVTPGEPASISCQASQELVHMNRNTYLHWYQQKPGQAPRLLIYKVSNRFPGVPDRFSGSGSGTDFTLKISRVEAEDVGVYYCAQGTSVPFTFGQGTKLEIK
B14: H183/L072 VH Q50M (antibody, name in Kabat numbering, V domains shown)
VH: QVQLVESGGGLVQPGRSLRLSCAASGFTFSNAWMHWVRQAPGKGLEWVAMIKDKGNAYAAYYAPSVKGRFTISRDDSKNSIYLQMNSLKTEDTAVYYCHYVHYASASTVLPAFGVDAWGQGTTVTVSS
VL: DIVMTQSPLSLPVTPGEPASISCQASQELVHMNRNTYLHWYQQKPGQAPRLLIYKVSNRFPGVPDRFSGSGSGTDFTLKISRVEAEDVGVYYCAQGTSVPFTFGQGTKLEIK
B15: H183/L072 VH Q50V (antibody, name in Kabat numbering, V domains shown)
VH: QVQLVESGGGLVQPGRSLRLSCAASGFTFSNAWMHWVRQAPGKGLEWVAVIKDKGNAYAAYYAPSVKGRFTISRDDSKNSIYLQMNSLKTEDTAVYYCHYVHYASASTVLPAFGVDAWGQGTTVTVSS
VL: DIVMTQSPLSLPVTPGEPASISCQASQELVHMNRNTYLHWYQQKPGQAPRLLIYKVSNRFPGVPDRFSGSGSGTDFTLKISRVEAEDVGVYYCAQGTSVPFTFGQGTKLEIK
B16: H183/L072 VH S30F (antibody, name in Kabat numbering, V domains shown)
VH: QVQLVESGGGLVQPGRSLRLSCAASGFTFFNAWMHWVRQAPGKGLEWVAQIKDKGNAYAAYYAPSVKGRFTISRDDSKNSIYLQMNSLKTEDTAVYYCHYVHYASASTVLPAFGVDAWGQGTTVTVSS
VL: DIVMTQSPLSLPVTPGEPASISCQASQELVHMNRNTYLHWYQQKPGQAPRLLIYKVSNRFPGVPDRFSGSGSGTDFTLKISRVEAEDVGVYYCAQGTSVPFTFGQGTKLEIK
B17: H183/L072 VH S30E (antibody, name in Kabat numbering, V domains shown)
VH: QVQLVESGGGLVQPGRSLRLSCAASGFTFENAWMHWVRQAPGKGLEWVAQIKDKGNAYAAYYAPSVKGRFTISRDDSKNSIYLQMNSLKTEDTAVYYCHYVHYASASTVLPAFGVDAWGQGTTVTVSS
VL: DIVMTQSPLSLPVTPGEPASISCQASQELVHMNRNTYLHWYQQKPGQAPRLLIYKVSNRFPGVPDRFSGSGSGTDFTLKISRVEAEDVGVYYCAQGTSVPFTFGQGTKLEIK
B18: H183/L072 VH Q50T (antibody, name in Kabat numbering, V domains shown)
VH: QVQLVESGGGLVQPGRSLRLSCAASGFTFSNAWMHWVRQAPGKGLEWVATIKDKGNAYAAYYAPSVKGRFTISRDDSKNSIYLQMNSLKTEDTAVYYCHYVHYASASTVLPAFGVDAWGQGTTVTVSS
VL: DIVMTQSPLSLPVTPGEPASISCQASQELVHMNRNTYLHWYQQKPGQAPRLLIYKVSNRFPGVPDRFSGSGSGTDFTLKISRVEAEDVGVYYCAQGTSVPFTFGQGTKLEIK
B19: H183/L072 VH Q50H (antibody, name in Kabat numbering, V domains shown)
VH: QVQLVESGGGLVQPGRSLRLSCAASGFTFSNAWMHWVRQAPGKGLEWVAHIKDKGNAYAAYYAPSVKGRFTISRDDSKNSIYLQMNSLKTEDTAVYYCHYVHYASASTVLPAFGVDAWGQGTTVTVSS
VL: DIVMTQSPLSLPVTPGEPASISCQASQELVHMNRNTYLHWYQQKPGQAPRLLIYKVSNRFPGVPDRFSGSGSGTDFTLKISRVEAEDVGVYYCAQGTSVPFTFGQGTKLEIK
B20: H183/L072 VH S30H (antibody, name in Kabat numbering, V domains shown)
VH: QVQLVESGGGLVQPGRSLRLSCAASGFTFHNAWMHWVRQAPGKGLEWVAQIKDKGNAYAAYYAPSVKGRFTISRDDSKNSIYLQMNSLKTEDTAVYYCHYVHYASASTVLPAFGVDAWGQGTTVTVSS
VL: DIVMTQSPLSLPVTPGEPASISCQASQELVHMNRNTYLHWYQQKPGQAPRLLIYKVSNRFPGVPDRFSGSGSGTDFTLKISRVEAEDVGVYYCAQGTSVPFTFGQGTKLEIK
B21: H183/L072 VH S30L (antibody, name in Kabat numbering, V domains shown)
VH: QVQLVESGGGLVQPGRSLRLSCAASGFTFLNAWMHWVRQAPGKGLEWVAQIKDKGNAYAAYYAPSVKGRFTISRDDSKNSIYLQMNSLKTEDTAVYYCHYVHYASASTVLPAFGVDAWGQGTTVTVSS
VL: DIVMTQSPLSLPVTPGEPASISCQASQELVHMNRNTYLHWYQQKPGQAPRLLIYKVSNRFPGVPDRFSGSGSGTDFTLKISRVEAEDVGVYYCAQGTSVPFTFGQGTKLEIK

These binders were tested against T1, Human CD137 ECD (human) (assay: single mutant vs template dBBDu183H).
T1 construct: also called 4-1BB
T1 sequence (chain, as listed by the source limits assumed): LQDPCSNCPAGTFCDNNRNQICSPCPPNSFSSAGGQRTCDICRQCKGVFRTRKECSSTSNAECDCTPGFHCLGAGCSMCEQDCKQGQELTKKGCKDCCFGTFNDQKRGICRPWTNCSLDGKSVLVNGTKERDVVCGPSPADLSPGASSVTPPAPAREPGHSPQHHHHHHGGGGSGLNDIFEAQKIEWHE

Going from B1 to B2, the “fold change of affinity” value falls from 2.6 fold to 0.8 fold.

Going from B3 to B4, the “fold change of affinity” value rises from 0.6 fold to 1.7 fold.

Compared with B5, B6 is lower in “fold change of affinity” value: 0.9 fold for the first, 0.8 fold for the second.

Compared with B7, B8 is lower in “fold change of affinity” value: 1.2 fold for the first, 0.8 fold for the second.

Compared with B9, B10 is lower in “fold change of affinity” value: 0.7 fold for the first, 0.5 fold for the second.

Going from B11 to B12, the “fold change of affinity” value rises from 0.4 fold to 0.8 fold.

First: B13
Second: B14
The “fold change of affinity” value of the first is higher: 3.1 fold for the first, 1.5 fold for the second.

Going from B15 to B16, the “fold change of affinity” value rises from 0.3 fold to 0.7 fold.

First: B17
Second: B18
The “fold change of affinity” value of the first is lower: 0.6 fold for the first, 2 fold for the second.

B19 and B20 are the same in “fold change of affinity” value: 0.6 fold for the first, 0.6 fold for the second.

B21 was tested, and the “fold change of affinity” value was 0.5 fold.
